Earlier results in paper PMC8439649.
pKd: −log10 of the molar value.

Target: mTORC1 (Homo sapiens) (UniProt P42345)

pKd: 5.15
Substance: DEPTOR PDZ (from UniProt Q8TB45)
